Results published in publication PMC4613707.
One block for each substance: values may come before it.

Key:
FLAG–TSP5 (human) = FLAG–TSP5 (human) (UniProt P49747); assay: SDS/PAGE under non-reducing and reducing conditions with immunoblot; FLAG-tagged proteins immunoprecipitated with anti-FLAG M2 on rProtein G agarose from conditioned media of transfected COS7 cells, washed in Tris-buffered saline with 2 mM CaCl2, eluted by boiling in SDS sample buffer with or without 100 mM DTT; oligomers formed in the cells
FLAG–TSP-5-1C (human) = assay: as above
[1] = target: FLAG–mRFP–TSP-5-1C (human); assay: SDS/PAGE under non-reducing and reducing conditions with immunoblot; mRFP-tagged proteins collected with RFP-Trap_A beads from conditioned media of transfected COS7 cells, eluted by boiling in SDS sample buffer with or without 100 mM DTT; immunoblot for RFP (and FLAG, result not shown); oligomers formed in the cells

Sequence of FLAG–TSP5, P49747 21-757 (natural protein; other documents disagree on this pair) (P49747 21-757): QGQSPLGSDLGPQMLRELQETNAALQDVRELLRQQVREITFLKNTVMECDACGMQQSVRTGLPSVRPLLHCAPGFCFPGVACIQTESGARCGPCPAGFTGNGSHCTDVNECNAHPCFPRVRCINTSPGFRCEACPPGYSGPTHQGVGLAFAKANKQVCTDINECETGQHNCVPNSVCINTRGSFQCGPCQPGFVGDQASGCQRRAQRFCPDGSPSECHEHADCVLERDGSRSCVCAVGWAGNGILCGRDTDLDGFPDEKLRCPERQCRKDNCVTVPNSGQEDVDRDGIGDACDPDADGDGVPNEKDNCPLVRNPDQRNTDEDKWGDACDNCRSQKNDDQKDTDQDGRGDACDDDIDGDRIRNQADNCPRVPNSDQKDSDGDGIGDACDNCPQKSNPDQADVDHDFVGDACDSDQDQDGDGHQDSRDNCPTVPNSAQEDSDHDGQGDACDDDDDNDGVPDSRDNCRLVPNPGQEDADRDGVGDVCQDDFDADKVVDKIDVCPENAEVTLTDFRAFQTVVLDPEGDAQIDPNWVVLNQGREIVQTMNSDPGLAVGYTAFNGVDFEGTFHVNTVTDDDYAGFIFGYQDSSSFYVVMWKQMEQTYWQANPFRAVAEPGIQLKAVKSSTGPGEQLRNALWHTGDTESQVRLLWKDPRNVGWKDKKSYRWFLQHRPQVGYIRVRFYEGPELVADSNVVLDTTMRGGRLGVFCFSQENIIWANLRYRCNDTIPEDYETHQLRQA

stoichiometry N (FLAG–TSP5 (human)): 5
Substance: FLAG–TSP5, P49747 21-757 (natural protein; other documents disagree on this pair)

stoichiometry N (FLAG–TSP-5-1C (human)): 5
Substance: FLAG–TSP-5-1C

stoichiometry N [1]: 5
Substance: FLAG–mRFP–TSP-5-1C
